In the series the test system is MS2 coat protein. The series is described as follows: apparent KD of MS2 coat protein; higher = weaker reporter binding. To be noted: Eterna round: R107. In short, it runs like this:
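Apparent KD stands for the median, per design, of fits to normalised cluster binding curves. The curves came from titrating on-chip-transcribed RNA switches on Illumina sequencing clusters with SNAP-549-labelled MS2 coat protein, twofold from 0.7 or 1.5 nM to 3 µM. Buffer was 100 mM Tris-HCl pH 7.5, 80 mM KCl, 4 mM MgCl2, without or with constant ligand.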

[1] abbreviates: input ligand: theophylline 20 uM.
The mark [2] stands for this setting: input ligand: theophylline 2 mM.
[3] abbreviates: input ligand: tryptophan 2.4 mM.

“UGUAUGUGAUCUGAUACCAGAGUGAAUAAACGCGAAAGCGCCUGAGGAUCACCCUGGUAACUCCCUUGGCAGCAGAUCGCAUACU”: the “apparent KD of MS2 coat protein” value reads like this: (input ligand: arginine 13.2 mM) 119 nM; (input ligand: none) 569 nM; under setting [1], 789 nM; under setting [2], 74.5 nM; under setting [3], 1390 nM.

On to “UGUAUGUGAUCUGAUACCAGCGAUGAUAACCUGAGGAUCACCCUGGUAAGGCGAAAGCCUCGCCCUUGGCAGCAGAUCGCAUACU”, for which the “apparent KD of MS2 coat protein” value runs as follows: (input ligand: arginine 13.2 mM) 407 nM; (input ligand: none) 583 nM; under setting [1], 273 nM; under setting [2], 24 nM; under setting [3], 800 nM.

For the sequence “UGUAUGUGAUCUGAUACCAGCUUUGAUAACCUGAGGAUCACCCUGGUAAAGGCGAAAGCCGGCCCUUGGCAGCAGAUCGCAUACU”, the “apparent KD of MS2 coat protein” value by setting is: (input ligand: arginine 13.2 mM) 47.3 nM; (input ligand: none) 58.5 nM; under setting [1], 56.1 nM; under setting [2], 24.6 nM; under setting [3], 59.7 nM.

Consider “UGUAUGUGAUCUGAUACCAGUCCAACUGGUAAAAUAUGAGGAUCACCCAUAUAAAAUUGGGACCCUUGGCAGCAGAUCGCAUACU”, for which the “apparent KD of MS2 coat protein” value runs as follows: (input ligand: arginine 13.2 mM) 108 nM; (input ligand: none) 265 nM; under setting [1], 632 nM; under setting [2], 129 nM; under setting [3], 492 nM.

“UGUAUGUGAUCUGAUACCAGUGACACGAAAGUGAAUCGCUUGAGGAUCACCCAAGUAAAACACCCUUGGCAGCAGAUCGCAUACU [Full moving switch bubble 1]”: the “apparent KD of MS2 coat protein” value (input ligand: arginine 13.2 mM) came to 20.3 nM; the “apparent KD of MS2 coat protein” value (input ligand: none) is 15.6 nM; the “apparent KD of MS2 coat protein” value under setting [1] came out at 23.5 nM; the “apparent KD of MS2 coat protein” value under setting [2] was 25 nM; the “apparent KD of MS2 coat protein” value under setting [3] came to 15.6 nM.

As to “UUAAUGGAGCUUUUAUUUACGAUUUCUGAUACCAGUGUUUCAUUUCACCCUUGGCAGCAGUGACAUGAGGAUCACCCAUGUAAUA [JR_Nu_SSTheophyA_Sub021]”, the “apparent KD of MS2 coat protein” value (input ligand: arginine 13.2 mM) amounted to 30.3 nM, the “apparent KD of MS2 coat protein” value under setting [1] was determined as 33.8 nM and the “apparent KD of MS2 coat protein” value under setting [3] worked out at 25.9 nM.

“UUACAACUAAUGGAUACCAGCCGCGUGCUAGUGGUAGCAUACAUGAGGAUCACCCAUGUCGGCCCUUGGCAGCCACGCCCAUGCU [theeternabot_exclusion_MS2_Theo_B_2]”: the “apparent KD of MS2 coat protein” value was found to be 13.7 nM (input ligand: arginine 13.2 mM), 21.7 nM under setting [1] and 14.2 nM under setting [3].

In the case of “UUAUAUUAUCGAAGGAGCGUCACAUGAGGAUCACCCAUGUACAUGAGGAUCACCCAUGUGUGGCAGGUAGGUCGCGAUAUAUAAC [Exclusion Arginine B GF9]”, the “apparent KD of MS2 coat protein” value worked out at 120 nM (input ligand: arginine 13.2 mM), 250 nM under setting [1], 301 nM under setting [2] and 327 nM under setting [3].

With “UUAUGCAGGUCGGCCGCCACUACACACAUGAGGAUCACCCAUGUAGUUACUGGGUGAAGUGGCAGUAGGACCGGGACCUGCAUAU [Brourdmod05]”, the “apparent KD of MS2 coat protein” value (input ligand: arginine 13.2 mM) turned out to be 84.5 nM, the “apparent KD of MS2 coat protein” value under setting [1] turned out to be 449 nM and the “apparent KD of MS2 coat protein” value under setting [2] came out at 832 nM.

“UUAUUUAUAAUGGAUACCAGUGCUGUGGCCCGGCAUCCUGACAUGAGGAUCACCCAUGUGUACCCUUGGCAGCUGUUAUGGGUUU [XTheo B #20]”: the “apparent KD of MS2 coat protein” value was 20.7 nM (input ligand: arginine 13.2 mM), 28.3 nM under setting [1] and 19.3 nM under setting [3].

Turning to “UUCAAAGGGAACGGUGCUGGUGACAGAGAUACCAGCGCGGUAACGCGCCCUUGGCAGCUCAGAACAUGAGGAUCACCCAUGUAAU [Exclusion Theophylline A GF23]”, the “apparent KD of MS2 coat protein” value runs as follows: (input ligand: arginine 13.2 mM) 15.9 nM; under setting [1], 20.7 nM; under setting [3], 15.4 nM.

For the sequence “UUGGUACAUGAGGAUCACCCAUGUACUGAAGGAGCGGGACGAAUCUCAGGUAGGUCGCAGACAUGAGGAUCACCCAUGUAUGGCU [Exclusion Arginine A GF 17]”, the “apparent KD of MS2 coat protein” value (input ligand: arginine 13.2 mM) was found to be 10.2 nM; the “apparent KD of MS2 coat protein” value (input ligand: none) amounted to 12.7 nM; the “apparent KD of MS2 coat protein” value under setting [1] is 14.6 nM; the “apparent KD of MS2 coat protein” value under setting [2] was 13.1 nM; the “apparent KD of MS2 coat protein” value under setting [3] came to 12.3 nM.

As to “UUGUAUAUGCGAAGGAGCGGGAAAUAUAUAUAUAUAAUCCUAACAUGAGGAUCACCCAUGUCCCAGGUAGGUCGCGCAUAUAUGG [12.F]”, the “apparent KD of MS2 coat protein” value is 80.5 nM (input ligand: arginine 13.2 mM); 69.5 nM (input ligand: none); 80.7 nM under setting [1]; 87.9 nM under setting [2]; 78.3 nM under setting [3].

For “UUGUUGUUUGGAAGGAGCGUGUAAGAUUAAGAACAUGAGGAUCACCCAUGUUGUAAGGUAGCACAGGUAGGUCGCCGGGUGGUGG [11.T]”, the “apparent KD of MS2 coat protein” value (input ligand: arginine 13.2 mM) was 19.3 nM; the “apparent KD of MS2 coat protein” value (input ligand: none) came out at 14.4 nM; the “apparent KD of MS2 coat protein” value under setting [1] amounted to 24.4 nM; the “apparent KD of MS2 coat protein” value under setting [2] was determined as 17.6 nM; the “apparent KD of MS2 coat protein” value under setting [3] is 15.1 nM.

“UUUGAAAUAACAGAUACCAGCGUGUUAUAAAACAUGAGGAUCACCCAUGUAGUGAUCAAGCGCCCUUGGCAGCUGGUAUUUUAGG [7.F]”: the “apparent KD of MS2 coat protein” value runs as follows: (input ligand: arginine 13.2 mM) 118 nM; under setting [1], 208 nM; under setting [3], 172 nM.
